Reference: patent US20240083945A1 (Bicycle, published 2024)

B1: BCY20263 (peptide)
peptide: ACTTDFCNNRYVVNRCA
modifications: N-terminal acetyl (Ac); Ci, Cii and Ciii cysteines covalently bound to TBMT scaffold
B2: BCY20265 (peptide)
peptide: ACSTDVCKLTGIAIPCA
modifications: N-terminal acetyl (Ac); Ci, Cii and Ciii cysteines covalently bound to TATA scaffold

Target: T1, COVID-19 nucleocapsid protein (N-protein) (severe acute respiratory syndrome …, UniProt P0DTC9 1-419)
T1 construct: also called nucleocapsid protein (N-protein) of severe acute respiratory syndrome coronavirus 2 (SARS-CoV-2)
Assay: bio-layer interferometry (BLI)

Point of comparison: ACDDWMIGCRITYKCA (Ci, Cii and Ciii cysteines covalently bound to TATA scaffold) [BCY17642], Kd 3940 nM. Against it:
- ACTNLQWADCYINHVCA (Ci, Cii and Ciii cysteines covalently bound to TATA scaffold) [BCY19458] — 1.7-fold lower, 2290 nM
- EKQYCTTDFCNNRYVVNRCA (Ci, Cii and Ciii cysteines covalently bound to TBMT scaffold) [BCY18977] — 180-fold lower, 22.3 nM
- ACLEAGQRCNWTRVCA (Ci, Cii and Ciii cysteines covalently bound to TATA scaffold) [BCY17649] — 6.6-fold lower, 596 nM
- ACTTDFCNDRYITELCA (Ci, Cii and Ciii cysteines covalently bound to TBMT scaffold) [BCY17632] — 1.5-fold lower, 2600 nM
- ACSRANNYCDWWKCA (Ci, Cii and Ciii cysteines covalently bound to TBCU scaffold) [BCY16578] — 5.7-fold higher, 22300 nM
- ACTNLEWAYCYIHNECA (Ci, Cii and Ciii cysteines covalently bound to TATA scaffold) [BCY19571] — 4.1-fold lower, 958 nM
- ACDKWQLGCRITYKCA (Ci, Cii and Ciii cysteines covalently bound to TATA scaffold) [BCY16575] — 3.9-fold lower, 1020 nM
- MPTSCVTDFCNNRYVVNRCA (Ci, Cii and Ciii cysteines covalently bound to TBMT scaffold) [BCY18984] — 54-fold lower, 72.8 nM
- NQLPCLTDFCNNRYVVNQCQEQS (Ci, Cii and Ciii cysteines covalently bound to TBMT scaffold) [BCY18994] — 1.7-fold higher, 6890 nM
- ACHVDVCLITGVNIPCA (Ci, Cii and Ciii cysteines covalently bound to TATA scaffold) [BCY19567] — 1.8-fold lower, 2250 nM
- ACTTDFCNDRYIINPCA (Ci, Cii and Ciii cysteines covalently bound to TBMT scaffold) [BCY17631] — 12-fold lower, 321 nM
- ACSEEYMFCNNRYVVCA (Ci, Cii and Ciii cysteines covalently bound to TATA scaffold) [BCY16577] — 4.2-fold lower, 934 nM
- HSLICVTDFCNNRYVVNRCA (Ci, Cii and Ciii cysteines covalently bound to TBMT scaffold) [BCY18986] — 370-fold lower, 10.6 nM
- NQLPCLTDFCNNRYVVNRCA (Ci, Cii and Ciii cysteines covalently bound to TBMT scaffold) [BCY18992] — 200-fold lower, 19.7 nM
- ACSTDVCKLTGIAIPCA (Ci, Cii and Ciii cysteines covalently bound to TATA scaffold) [BCY18169] — 2.5-fold lower, 1600 nM
- ACTTDFCNNRYVTQRCA (Ci, Cii and Ciii cysteines covalently bound to TBMT scaffold) [BCY17629] — 94-fold lower, 41.7 nM
- ACWTDFCNNRYVTQRCA (Ci, Cii and Ciii cysteines covalently bound to TBMT scaffold) [BCY17634] — 61-fold lower, 64.2 nM
- ACSVDVCAITGVHIPCA (Ci, Cii and Ciii cysteines covalently bound to TATA scaffold) [BCY19566] — within 1.5-fold, 3260 nM
- ACENFQLGCRITYKCA (Ci, Cii and Ciii cysteines covalently bound to TATA scaffold) [BCY17643] — within 1.5-fold, 4230 nM
- ACTTDFCNDRYIVNSCA (Ci, Cii and Ciii cysteines covalently bound to TBMT scaffold) [BCY17630] — 12-fold lower, 331 nM
- ACMHDVCVLTGVNIPCA (Ci, Cii and Ciii cysteines covalently bound to TATA scaffold) [BCY19563] — 2.6-fold lower, 1510 nM
- ACQVDVCALTGIQIPCA (Ci, Cii and Ciii cysteines covalently bound to TATA scaffold) [BCY19455] — 3.8-fold higher, 14900 nM
- B1 — 330-fold lower, 11.8 nM
- ACDGNFCDNRYVTQRCA (Ci, Cii and Ciii cysteines covalently bound to TBMT scaffold) [BCY17635] — 10-fold higher, 40300 nM
- QYESCTTDFCNNRYVVNRCGSDN (Ci, Cii and Ciii cysteines covalently bound to TBMT scaffold) [BCY18979] — 36-fold lower, 108 nM
- ACTNRNFCQNRYSVTCA (Ci, Cii and Ciii cysteines covalently bound to TBCU scaffold) [BCY16568] — 2.1-fold higher, 8160 nM
- ACTNLDWAYCYIHNQCA (Ci, Cii and Ciii cysteines covalently bound to TATA scaffold) [BCY19570] — 4-fold lower, 978 nM
- RRAVCTTDFCNNRYVVNRCDDYH (Ci, Cii and Ciii cysteines covalently bound to TBMT scaffold) [BCY18978] — 98-fold lower, 40.2 nM
- ACLAPGQRCNWTRVCA (Ci, Cii and Ciii cysteines covalently bound to TATA scaffold) [BCY17652] — 28-fold lower, 142 nM
- ACLEAGQRCQWQRECA (Ci, Cii and Ciii cysteines covalently bound to TATA scaffold) [BCY17650] — 2-fold lower, 1990 nM
- ACLPLGARCQWQRECA (Ci, Cii and Ciii cysteines covalently bound to TATA scaffold) [BCY17648] — 2.1-fold lower, 1860 nM
- ACLEAGQRCQWGRTCA (Ci, Cii and Ciii cysteines covalently bound to TATA scaffold) [BCY17644] — 5.8-fold lower, 675 nM
- ACLEAGQRCQWSRTCA (Ci, Cii and Ciii cysteines covalently bound to TATA scaffold) [BCY17651] — 5.7-fold lower, 686 nM
- ACLAPGQRCQWQRECA (Ci, Cii and Ciii cysteines covalently bound to TATA scaffold) [BCY17653] — 4.9-fold lower, 799 nM
- KSQRCMTDFCNNRYVVNRCA (Ci, Cii and Ciii cysteines covalently bound to TBMT scaffold) [BCY18993] — 170-fold lower, 23.8 nM
- ACTTDFCNNRYVVNQCSYPR (Ci, Cii and Ciii cysteines covalently bound to TBMT scaffold) [BCY18973] — 18-fold lower, 225 nM
- ACTNLEWADCYINHNCA (Ci, Cii and Ciii cysteines covalently bound to TATA scaffold) [BCY19572] — 3.9-fold lower, 1000 nM
- ACTNLEWANCYINHNCA (Ci, Cii and Ciii cysteines covalently bound to TATA scaffold) [BCY19573] — 3.3-fold lower, 1190 nM
- LEQICVTDFCNNRYVVNRCA (Ci, Cii and Ciii cysteines covalently bound to TBMT scaffold) [BCY18985] — 140-fold lower, 28.1 nM
- ACAWDEYYQVCLPCA (Ci, Cii and Ciii cysteines covalently bound to TATA scaffold) [BCY16580] — 1.7-fold higher, 6680 nM
- ACTVDVCAITGVQIPCA (Ci, Cii and Ciii cysteines covalently bound to TATA scaffold) [BCY19568] — 2.1-fold lower, 1870 nM
- ACTVDVCLLTGLHIPCA (Ci, Cii and Ciii cysteines covalently bound to TATA scaffold) [BCY19454] — 1.8-fold higher, 7110 nM
- ACTVDVCELTGLHIPCA (Ci, Cii and Ciii cysteines covalently bound to TATA scaffold) [BCY19565] — 4.7-fold lower, 840 nM
- LARDCGTDFCNNRYVVNRCA (Ci, Cii and Ciii cysteines covalently bound to TBMT scaffold) [BCY18989] — 150-fold lower, 26.5 nM
- ACFRGYCPQTNLFCA (Ci, Cii and Ciii cysteines covalently bound to TBMT scaffold) [BCY16573] — 5.4-fold lower, 728 nM
- ACLAPGQRCQWGRTCA (Ci, Cii and Ciii cysteines covalently bound to TATA scaffold) [BCY17645] — 17-fold lower, 227 nM
- ACLPLGARCQWGRTCA (Ci, Cii and Ciii cysteines covalently bound to TATA scaffold) [BCY16576] — 6.6-fold lower, 593 nM
- ACLPLGARCQWSRTCA (Ci, Cii and Ciii cysteines covalently bound to TATA scaffold) [BCY17647] — 7.2-fold lower, 548 nM
- ACTHDVCVLTGISIPCA (Ci, Cii and Ciii cysteines covalently bound to TATA scaffold) [BCY19564] — 2-fold lower, 2000 nM
- ACVHDVCALTGIHIPCA (Ci, Cii and Ciii cysteines covalently bound to TATA scaffold) [BCY19453] — within 1.5-fold, 4240 nM
- ACTTDFCNNRYVVNLCQNKS (Ci, Cii and Ciii cysteines covalently bound to TBMT scaffold) [BCY18982] — 49-fold lower, 79.7 nM
- HSLICVTDFCNNRYVVNRCMHSQ (Ci, Cii and Ciii cysteines covalently bound to TBMT scaffold) [BCY18987] — 410-fold lower, 9.7 nM
- ACDGNFCDNRYVVNRCA (Ci, Cii and Ciii cysteines covalently bound to TBMT scaffold) [BCY17636] — 2.3-fold lower, 1730 nM
- ACTTDFCNNRYVVNQCQEQS (Ci, Cii and Ciii cysteines covalently bound to TBMT scaffold) [BCY18983] — 1.6-fold lower, 2450 nM
- B2 — 1600-fold lower, 2.5 nM
- KTEYCETDFCNNRYVVNRCA (Ci, Cii and Ciii cysteines covalently bound to TBMT scaffold) [BCY18988] — 140-fold lower, 29.1 nM
- ACLVDVCEITGVQIRCA (Ci, Cii and Ciii cysteines covalently bound to TATA scaffold) [BCY18171] — within 1.5-fold, 5610 nM
- ACTNLQWAMCYITGNCA (Ci, Cii and Ciii cysteines covalently bound to TATA scaffold) [BCY18172] — within 1.5-fold, 2740 nM
- ACLPLGARCNWTRVCA (Ci, Cii and Ciii cysteines covalently bound to TATA scaffold) [BCY17646] — 20-fold lower, 198 nM
- LSQPCLTDFCNNRYVVNRCA (Ci, Cii and Ciii cysteines covalently bound to TBMT scaffold) [BCY18991] — 370-fold lower, 10.6 nM
- ACRVTLDACWDTPCA (Ci, Cii and Ciii cysteines covalently bound to TATA scaffold) [BCY16579] — 5.2-fold lower, 759 nM
- ACNTWCMDNDRIYFNCA (Ci, Cii and Ciii cysteines covalently bound to TBMT scaffold) [BCY16574] — 3.8-fold lower, 1030 nM
